This is an account of results in publication doi:10.1101/528711.

One experiment has as its target tIVR (UniProt P45974). In words: other fluorescence titration.
For experiment [1], the target named is Atto532-tUI (UniProt Q9UMX0). In words: other fluorescence titration.
Experiment [2] has as its target Atto532-tUI (UniProt Q9UMX0). Nature of the experiment: stopped-flow fluorescence kinetics.
The target of the next experiment is Atto532-tISR (UniProt P45974). In words: other fluorescence titration.
Another experiment concerns the target tUI (UniProt Q9UMX0). In words: other fluorescence titration.

tIVR, sequence (P45974 whole entry, looked up): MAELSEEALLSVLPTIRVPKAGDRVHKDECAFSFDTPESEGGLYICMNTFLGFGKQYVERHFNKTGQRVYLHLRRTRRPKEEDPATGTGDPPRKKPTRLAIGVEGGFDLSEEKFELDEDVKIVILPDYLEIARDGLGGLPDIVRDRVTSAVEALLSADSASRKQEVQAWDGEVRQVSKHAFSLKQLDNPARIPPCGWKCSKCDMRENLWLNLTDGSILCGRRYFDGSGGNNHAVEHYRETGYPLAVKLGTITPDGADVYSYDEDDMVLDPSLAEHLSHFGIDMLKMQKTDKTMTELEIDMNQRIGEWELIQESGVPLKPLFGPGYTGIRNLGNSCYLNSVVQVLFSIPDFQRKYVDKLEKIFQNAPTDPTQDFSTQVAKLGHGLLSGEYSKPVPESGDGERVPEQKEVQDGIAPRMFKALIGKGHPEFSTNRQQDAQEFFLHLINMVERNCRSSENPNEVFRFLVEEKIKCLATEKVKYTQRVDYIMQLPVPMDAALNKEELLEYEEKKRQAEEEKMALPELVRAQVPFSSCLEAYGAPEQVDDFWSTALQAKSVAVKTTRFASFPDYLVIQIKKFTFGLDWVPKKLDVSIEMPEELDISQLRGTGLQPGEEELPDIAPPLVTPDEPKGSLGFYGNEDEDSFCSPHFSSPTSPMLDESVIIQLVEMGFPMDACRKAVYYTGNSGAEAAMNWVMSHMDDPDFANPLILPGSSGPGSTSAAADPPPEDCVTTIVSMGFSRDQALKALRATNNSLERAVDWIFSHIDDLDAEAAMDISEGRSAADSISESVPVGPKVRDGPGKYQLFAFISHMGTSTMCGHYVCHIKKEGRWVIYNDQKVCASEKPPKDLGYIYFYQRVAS
Atto532-tUI, sequence (Q9UMX0 whole entry, looked up): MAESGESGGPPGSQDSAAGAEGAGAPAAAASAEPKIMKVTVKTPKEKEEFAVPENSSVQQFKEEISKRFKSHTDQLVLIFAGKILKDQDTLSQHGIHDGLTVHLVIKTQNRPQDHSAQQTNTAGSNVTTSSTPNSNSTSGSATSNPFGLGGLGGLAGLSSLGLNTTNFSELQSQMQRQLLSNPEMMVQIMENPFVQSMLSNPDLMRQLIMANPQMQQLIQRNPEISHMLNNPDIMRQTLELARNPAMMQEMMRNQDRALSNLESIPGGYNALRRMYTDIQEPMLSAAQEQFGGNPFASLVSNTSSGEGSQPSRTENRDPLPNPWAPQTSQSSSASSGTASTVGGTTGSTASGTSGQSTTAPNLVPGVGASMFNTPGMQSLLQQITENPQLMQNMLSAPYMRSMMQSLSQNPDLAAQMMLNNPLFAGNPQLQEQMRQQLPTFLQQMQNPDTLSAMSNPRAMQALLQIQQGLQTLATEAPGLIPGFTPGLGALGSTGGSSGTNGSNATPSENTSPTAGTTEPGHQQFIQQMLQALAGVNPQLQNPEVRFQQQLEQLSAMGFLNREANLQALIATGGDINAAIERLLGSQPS
Nedd8, sequence (Q15843 1-76): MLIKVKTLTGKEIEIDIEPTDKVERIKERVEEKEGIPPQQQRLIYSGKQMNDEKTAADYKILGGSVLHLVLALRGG
Atto532-tISR, sequence (P45974 whole entry, looked up): as the sequence (P45974 whole entry, looked up) above
tUI, sequence (Q9UMX0 whole entry, looked up): as the sequence (Q9UMX0 whole entry, looked up) above

In the case of “Nedd8 (from UniProt Q15843 1-76) (natural protein)”, the fold preference for Ub over Nedd8 in the experiment with tIVR came out at 3000 fold. The same substance displayed a fold higher affinity for Ub than Nedd8 in the experiment with Atto532-tUI [1] of 120 fold.
Take “ubiquitin (from UniProt P0CG48 1-76) (natural protein)”: the Kd with Atto532-tUI [2] came to 0.0564 nM; with Atto532-tISR, 24.3 nM; with tIVR, 25.4 nM; in the experiment with Atto532-tUI [1] it was 0.066 nM. Further, the Ki in the experiment with tIVR turned out to be 19 nM; with tUI it was 0.194 nM.

What is called Kd is the concentration at which binding is half-saturated. Low values mean higher affinity, high ones lower affinity. Broadly, the Ki is the equilibrium dissociation constant of an inhibitor or competing ligand from its target. A low value points to higher affinity.
